T1: recombinant full-length human transglutaminase 1 (TGase 1) enzyme (human, UniProt P22735 1-817, constitutively N-myristoylated and S-myristoylated or S-palmitoylated on its amino-terminal 10 kDa portion)
T1 construct: also called TGase I; TGAaseI
T1 sequence (looked up): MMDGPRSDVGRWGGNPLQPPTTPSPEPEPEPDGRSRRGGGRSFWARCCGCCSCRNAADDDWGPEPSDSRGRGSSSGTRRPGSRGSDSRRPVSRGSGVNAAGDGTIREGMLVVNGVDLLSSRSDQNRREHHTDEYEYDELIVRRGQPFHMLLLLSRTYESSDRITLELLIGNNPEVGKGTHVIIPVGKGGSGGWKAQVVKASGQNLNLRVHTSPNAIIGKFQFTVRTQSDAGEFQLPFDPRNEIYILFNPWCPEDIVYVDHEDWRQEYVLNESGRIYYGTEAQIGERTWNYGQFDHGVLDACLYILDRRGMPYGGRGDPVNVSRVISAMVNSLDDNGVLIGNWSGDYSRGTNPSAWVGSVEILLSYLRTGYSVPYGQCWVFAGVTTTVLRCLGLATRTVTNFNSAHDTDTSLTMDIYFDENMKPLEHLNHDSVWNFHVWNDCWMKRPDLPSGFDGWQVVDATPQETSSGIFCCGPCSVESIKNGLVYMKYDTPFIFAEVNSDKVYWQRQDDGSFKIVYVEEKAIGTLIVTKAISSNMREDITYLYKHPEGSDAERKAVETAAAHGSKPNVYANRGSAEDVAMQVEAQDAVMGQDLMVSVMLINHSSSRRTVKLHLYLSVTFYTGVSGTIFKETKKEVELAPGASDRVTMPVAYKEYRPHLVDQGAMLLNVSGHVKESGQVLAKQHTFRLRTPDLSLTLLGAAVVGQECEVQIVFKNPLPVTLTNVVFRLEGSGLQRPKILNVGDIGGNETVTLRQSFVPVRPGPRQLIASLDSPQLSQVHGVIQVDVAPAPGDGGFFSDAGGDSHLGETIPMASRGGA

T2: recombinant human involucrin, P07476
T2 chain: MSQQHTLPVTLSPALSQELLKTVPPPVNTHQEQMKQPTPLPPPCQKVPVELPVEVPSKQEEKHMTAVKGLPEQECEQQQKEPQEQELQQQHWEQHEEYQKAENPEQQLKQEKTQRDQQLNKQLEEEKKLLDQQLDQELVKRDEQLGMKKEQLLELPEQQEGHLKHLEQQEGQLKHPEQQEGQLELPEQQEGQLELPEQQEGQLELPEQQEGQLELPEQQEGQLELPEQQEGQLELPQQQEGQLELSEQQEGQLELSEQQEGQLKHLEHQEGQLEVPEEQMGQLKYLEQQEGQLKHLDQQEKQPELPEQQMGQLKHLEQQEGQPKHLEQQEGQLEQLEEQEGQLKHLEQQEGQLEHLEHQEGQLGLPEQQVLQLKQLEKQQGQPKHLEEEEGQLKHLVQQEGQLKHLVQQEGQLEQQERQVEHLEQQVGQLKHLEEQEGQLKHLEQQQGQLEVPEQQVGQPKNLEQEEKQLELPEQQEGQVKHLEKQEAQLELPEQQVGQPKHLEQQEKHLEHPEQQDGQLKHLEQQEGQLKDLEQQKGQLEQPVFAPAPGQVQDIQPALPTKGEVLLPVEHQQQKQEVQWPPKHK


Experiments:
[1] = molecular target: T1, recombinant full-length human …; test: 14C-putrescine labelling of involucrin Gln residues by TGase 1, tryptic peptide sequencing
Experimental: In this first set of experiments, the Gln residues of involucrin that were cross-linked by recombinant TGase 1 were analyzed in the absence of natural insect cell membranes and SLV. ¹⁴C-putrescine incorporation into involucrin was analyzed following trypsin digestion and separation of tryptic peptides on a C18 reverse phase HPLC column. Labeled peptide peaks were dried and identified by sequencing. The PTH derivative of (-glutamylputrescine isopeptide formed in the TGase reaction was identified as a distinct peak in the Porton LP 3000 gas-phase sequencer. (FIG. 7). A total of 40 tryptic peptides were reliably separated, of which 29 (arrows) were labeled by ¹⁴C-putrescine in a reaction with solubilized recombinant TGase 1 and involucrin. (FIG. 8A). Sequencing identified […] labeled Gln residues (Table 2, panel A), with a total of about 20 mol of putrescine incorporated/mol of involucrin (Table 2, panel A). In contrast to the 29 Gln residues found to be involved in the binding of involucrin to soluble TGase 1 in the experiments above, membrane-bound TGase 1 binds to involucrin through five specific Gln residues, as discussed in the following section.

[2] = molecular target: recombinant human small proline rich protein 2 (SPR2)
[3] = molecular target: T2, recombinant human involucrin, P07476

binding result [1]	Binder	KM(app) of the protein substrate; 14C-putrescine incorporation by SLV-bound TGase 1 (0% PS) (succinylated casein) [µM]	KM(app) of the protein substrate; 14C-putrescine incorporation by SLV-bound TGase 1 (15% PS) (succinylated casein) [µM]	KM(app) of the protein substrate; 14C-putrescine incorporation by solubilized TGase 1 (succinylated casein) [µM]	KM(app) of the protein substrate; 14C-putrescine incorporation by SLV-bound TGase 1 (0% PS) [2] [µM]	KM(app) of the protein substrate; 14C-putrescine incorporation by SLV-bound TGase 1 (15% PS) [2] [µM]	KM(app) of the protein substrate; 14C-putrescine incorporation by solubilized TGase 1 [2] [µM]	fold increase of KM after attachment of TGase 1 to SLV (0 or 15% PS) [2]	KM(app) of the protein substrate; 14C-putrescine incorporation by SLV-bound TGase 1 (15% PS) [3] [µM]	KM(app) of the protein substrate; 14C-putrescine incorporation by solubilized TGase 1 [3] [µM]	fold decrease of KM, SLV with 15% PS against solubilized TGase 1 and soluble involucrin [3]	kinetic parameters for involucrin as substrate, SLV-bound TGase 1 (0% PS) [3]
binds	recombinant human involucrin (other, UniProt P07476 1-585, looked up, Substrate of TGase 1) MSQQHTLPVTLSPALSQELLKTVPPPVNTHQEQMKQPTPLPPPCQKVPVELPVEVPSKQEEKHMTAVKGLPEQECEQQQKEPQEQELQQQHWEQHEEYQKAENPEQQLKQEKTQRDQQLNKQLEEEKKLLDQQLDQELVKRDEQLGMKKEQLLELPEQQEGHLKHLEQQEGQLKHPEQQEGQLELPEQQEGQLELPEQQEGQLELPEQQEGQLELPEQQEGQLELPEQQEGQLELPQQQEGQLELSEQQEGQLELSEQQEGQLKHLEHQEGQLEVPEEQMGQLKYLEQQEGQLKHLDQQEKQPELPEQQMGQLKHLEQQEGQPKHLEQQEGQLEQLEEQEGQLKHLEQQEGQLEHLEHQEGQLGLPEQQVLQLKQLEKQQGQPKHLEEEEGQLKHLVQQEGQLKHLVQQEGQLEQQERQVEHLEQQVGQLKHLEEQEGQLKHLEQQQGQLEVPEQQVGQPKNLEQEEKQLELPEQQEGQVKHLEKQEAQLELPEQQVGQPKHLEQQEKHLEHPEQQDGQLKHLEQQEGQLKDLEQQKGQLEQPVFAPAPGQVQDIQPALPTKGEVLLPVEHQQQKQEVQWPPKHK											
	recombinant full-length human transglutaminase 1 (TGase 1) enzyme (protein) MMDGPRSDVGRWGGNPLQPPTTPSPEPEPEPDGRSRRGGGRSFWARCCGCCSCRNAADDDWGPEPSDSRGRGSSSGTRRPGSRGSDSRRPVSRGSGVNAAGDGTIREGMLVVNGVDLLSSRSDQNRREHHTDEYEYDELIVRRGQPFHMLLLLSRTYESSDRITLELLIGNNPEVGKGTHVIIPVGKGGSGGWKAQVVKASGQNLNLRVHTSPNAIIGKFQFTVRTQSDAGEFQLPFDPRNEIYILFNPWCPEDIVYVDHEDWRQEYVLNESGRIYYGTEAQIGERTWNYGQFDHGVLDACLYILDRRGMPYGGRGDPVNVSRVISAMVNSLDDNGVLIGNWSGDYSRGTNPSAWVGSVEILLSYLRTGYSVPYGQCWVFAGVTTTVLRCLGLATRTVTNFNSAHDTDTSLTMDIYFDENMKPLEHLNHDSVWNFHVWNDCWMKRPDLPSGFDGWQVVDATPQETSSGIFCCGPCSVESIKNGLVYMKYDTPFIFAEVNSDKVYWQRQDDGSFKIVYVEEKAIGTLIVTKAISSNMREDITYLYKHPEGSDAERKAVETAAAHGSKPNVYANRGSAEDVAMQVEAQDAVMGQDLMVSVMLINHSSSRRTVKLHLYLSVTFYTGVSGTIFKETKKEVELAPGASDRVTMPVAYKEYRPHLVDQGAMLLNVSGHVKESGQVLAKQHTFRLRTPDLSLTLLGAAVVGQECEVQIVFKNPLPVTLTNVVFRLEGSGLQRPKILNVGDIGGNETVTLRQSFVPVRPGPRQLIASLDSPQLSQVHGVIQVDVAPAPGDGGFFSDAGGDSHLGETIPMASRGGA	138	145	61.4	25.3	22.8	13.2	differed only by about a two-fold increase in KM if the PS content of SLV was 0 or 15%	2.9	114	an approximately 40-fold decreased KM	The kinetic parameters for involucrin as a substrate were immeasurably low when the SLV were formulated in the absence of PS

Source: patent publication US20030072795A1 (US Dept. of Health and Human Services, published 2003)
